# B1: SLC6A17 (parent)
# chain: HMFTPKLDKMLDPQVWREAATQVF
# Variants of: B1
# Assay: protein stability index of a GFP-peptide fusion (GPS, HEK-293T) (PSI 1-6); higher = more stable
# Conditions: c terminus: a fixed tail appended
# 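Note: lentivirally expressed fusions sorted by FACS into six bins by GFP to DsRed ratio, PSI derived from sequencing read proportions per bin multiplied by bin number.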
row,Variant,protein stability index
1,A19P,2.24
2,A19K,1.79
3,A19R,2.03
4,A19I,1.91
5,A19W,1.35
6,A19T,2.56
7,A19H,2.14
8,A19G,1.63
9,A19N,2.35
10,A19M,1.5
11,A19E,1.96
12,A19V,2.15
13,A19S,1.52
14,A19Q,2.35
15,A19L,1.48
16,D12C,2.67
17,D12E,1.39
18,D12M,1.42
19,D12F,1.63
20,D12G,1.3
21,D12W,2.8
22,D12T,2.45
23,D12Y,1.34
24,D12R,1.81

row,Variant,protein stability index
1,D12S,1.98
2,D12I,1.79
3,D12Q,2.2
4,L7M,2.38
5,L7R,1.89
6,L7F,1.8
7,L7H,1.79
8,L7P,2.1
9,L7W,1.62
10,L7K,2.73
11,L7N,1.99
12,L7V,1.79
13,L7C,1.86
14,L7I,1.4
15,L7Q,2.55
16,L7S,2.02
17,L7G,2.24
18,L7D,2.55
19,L7T,2.27
20,P5H,1.85
21,P5D,2.61
22,P5M,1.03
23,P5E,2.4
24,P5L,1.55

row,Variant,protein stability index
1,P5K,1.69
2,P5I,3.2
3,P5W,1.3
4,P5Q,2.49
5,P5Y,2.08
6,P5S,2.09
7,P5G,1.61
8,P5A,2.46
9,P5V,1.69
10,P5C,1.53
11,Q14T,2.23
12,Q14M,2.06
13,Q14P,1.63
14,Q14N,2.23
15,Q14L,2.14
16,Q14G,1.56
17,Q14K,2.26
18,Q14S,1.59
19,Q14A,1.73
20,Q14Y,2.03
21,Q14V,2.51
22,Q14H,1.74
23,Q14F,2.13
24,Q14I,1.12

row,Variant,protein stability index
1,Q14W,1.69
2,H1E,2.17
3,H1F,2.13
4,H1Y,1.79
5,H1R,1.98
6,H1T,1.46
7,H1Q,2.29
8,H1V,2.51
9,H1N,1.56
10,H1G,1.79
11,H1P,2.72
12,H1K,1.5
13,H1S,2.06
14,H1L,1.88
15,M2D,2.34
16,M2F,1.65
17,M2Y,2.84
18,M2G,1.92
19,M2I,2.53
20,M2V,1.62
21,M2Q,2.52
22,M2L,1.71
23,M2S,2.03
24,M2K,2.13

row,Variant,protein stability index
1,M2P,2.36
2,M2W,1.81
3,M2N,2.43
4,M2E,2.49
5,M2C,2.01
6,M2R,2.56
7,P13W,1
8,P13E,2.4
9,P13V,2.11
10,P13D,1.79
11,P13K,2.34
12,P13L,1.86
13,P13S,1.93
14,P13Y,1.69
15,P13H,1.54
16,P13A,2
17,P13M,2.33
18,P13T,1.76
19,P13I,1.29
20,P13N,2.4
21,D8I,1.65
22,D8Q,1.87
23,D8P,3.01
24,D8M,1.81

row,Variant,protein stability index
1,D8S,2.3
2,D8H,1.84
3,D8K,2.79
4,D8L,1.76
5,D8G,2.06
6,D8F,2.81
7,D8R,3.33
8,D8N,2.33
9,D8W,1.86
10,D8Y,2
11,D8T,2.27
12,D8E,1.5
13,W16G,3.27
14,W16A,2.47
15,W16D,3.83
16,W16Q,3.06
17,W16E,3.76
18,W16V,2.59
19,W16L,2.34
20,W16N,3.2
21,W16R,3.72
22,W16I,2.33
23,W16S,2.87
24,W16C,2.75

row,Variant,protein stability index
1,W16K,2.94
2,W16T,3.05
3,R17F,1.27
4,R17I,2.08
5,R17N,2.26
6,R17V,2.18
7,R17Q,1.84
8,R17H,1.74
9,R17M,2.42
10,R17A,1.36
11,R17G,2
12,R17E,2.3
13,R17W,1.6
14,R17D,2.46
15,R17K,1.11
16,R17L,3.05
17,T4M,2.97
18,T4W,2.21
19,T4D,1.76
20,T4Y,2.11
21,T4G,2.1
22,T4C,2.49
23,T4I,1.45
24,T4P,2.07

row,Variant,protein stability index
1,T4F,1.9
2,T4H,1.79
3,T4E,2.31
4,T4A,2.4
5,T4L,2.69
6,T4R,2.39
7,V23R,3.06
8,V23H,2.02
9,V23C,2.99
10,V23E,2.9
11,V23N,2.07
12,V23F,2.16
13,V23G,2.2
14,V23I,1.89
15,V23T,2.02
16,V23W,1.75
17,V23L,1.58
18,M10D,2.63
19,M10V,1.85
20,M10G,2.15
21,M10L,3.08
22,M10N,1.99
23,M10W,2.05
24,M10K,1.78

row,Variant,protein stability index
1,M10H,1.42
2,M10Q,2.78
3,M10R,1.78
4,M10C,2.31
5,M10P,2.4
6,M10E,2.57
7,M10Y,2.23
8,K9L,1.83
9,K9T,2.1
10,K9A,1.21
11,K9R,2.42
12,K9E,1.58
13,K9I,1.66
14,K9Y,1.33
15,K9Q,1.92
16,K9W,2.95
17,K9N,2.04
18,K9G,1.25
19,K9M,2.03
20,K9D,2.63
21,K9V,1.5
22,K9H,2.94
23,K6H,1.83
24,K6Q,1.51

row,Variant,protein stability index
1,K6R,1.76
2,K6T,1.74
3,K6I,1.7
4,K6Y,2.85
5,K6L,2.1
6,K6C,1.98
7,K6P,2.01
8,K6E,1.74
9,K6A,1.99
10,K6W,2.1
11,K6D,2.67
12,K6V,1.24
13,K6M,1.62
14,A20G,1.82
15,A20S,2.03
16,A20L,2.6
17,A20D,2.24
18,A20K,2.38
19,A20V,1.22
20,A20I,2.21
21,A20H,1.26
22,A20R,1.87
23,A20E,2.41
24,A20T,2.19

row,Variant,protein stability index
1,A20Q,1.7
2,A20N,1.94
3,L11D,1.87
4,L11N,2.29
5,L11K,2.24
6,L11T,2.18
7,L11I,2.39
8,L11F,2.33
9,L11V,1.87
10,L11M,2.05
11,L11W,1.63
12,L11Q,2.35
13,L11C,2.17
14,L11Y,2.43
15,L11P,2.16
16,L11S,2.18
17,F3E,3.49
18,F3P,2.65
19,F3S,2.27
20,F3Q,2.17
21,F3Y,2.6
22,F3I,2.45
23,F3G,1.91
24,F3H,2.17

row,Variant,protein stability index
1,F3A,2.2
2,F3D,2.69
3,F3W,2.07
4,F3C,2.25
5,F3K,1.98
6,F3L,1.99
7,F3M,1.81
8,F3V,2.7
9,F3N,2.86
10,T21D,2.36
11,T21V,1.71
12,T21I,1.48
13,T21S,1.94
14,T21C,1.06
15,T21W,2.48
16,T21Y,1.54
17,T21P,2.46
18,T21H,1.76
19,T21M,1.54
20,T21K,3.06
21,T21R,1.84
22,T21A,1.91
23,T21L,1.88
24,T21N,2.21

row,Variant,protein stability index
1,Q22D,2.43
2,Q22G,1.93
3,Q22K,2.52
4,Q22P,1.67
5,Q22E,1.9
6,Q22Y,1.85
7,Q22I,1.45
8,Q22C,1.81
9,Q22R,1.77
10,Q22M,3.21
11,Q22W,2.1
12,Q22L,1.68
13,E18F,1.85
14,E18D,1.87
15,E18M,1.52
16,E18R,3.18
17,E18S,1.99
18,E18N,2.3
19,E18G,1.02
20,E18A,2.04
21,E18K,1.08
22,F24N,2.67
23,F24I,1.54
24,F24K,3.81

row,Variant,protein stability index
1,F24C,1.97
2,F24Q,2.64
3,F24T,2.38
4,F24L,2.7
5,F24S,3.39
6,F24A,2.29
7,F24P,3.17
8,F24Y,1.88
9,V15Y,2.12
10,V15L,2.37
11,V15H,2.34
12,V15P,2.81
13,V15A,2.38
14,V15C,2.12
15,V15F,2.22
16,V15N,1.9
17,V15G,1.96
18,V15D,2.96
19,V15R,3.24
20,V15M,1.63
21,V15I,1.35
22,V15Q,1.89
